“Also recorded” adds a separate entry of the source. Non-standard residues stand in square brackets, D forms with d. No end group written: not given here. Met(O) = CS(=O)CC[C@H](N)C(=O)O
Target: T1, full-length human pituitary G protein-coupled receptor protein (phGR3) expressed in CHO-19P2 cells (Homo sapiens, UniProt P49683)
T1 construct: a ligation reaction was carried out to construct a full-length receptor protein expression plasmid pAKKO-19P2; expressed in transfected cells
T1 sequence (P49683 1-370): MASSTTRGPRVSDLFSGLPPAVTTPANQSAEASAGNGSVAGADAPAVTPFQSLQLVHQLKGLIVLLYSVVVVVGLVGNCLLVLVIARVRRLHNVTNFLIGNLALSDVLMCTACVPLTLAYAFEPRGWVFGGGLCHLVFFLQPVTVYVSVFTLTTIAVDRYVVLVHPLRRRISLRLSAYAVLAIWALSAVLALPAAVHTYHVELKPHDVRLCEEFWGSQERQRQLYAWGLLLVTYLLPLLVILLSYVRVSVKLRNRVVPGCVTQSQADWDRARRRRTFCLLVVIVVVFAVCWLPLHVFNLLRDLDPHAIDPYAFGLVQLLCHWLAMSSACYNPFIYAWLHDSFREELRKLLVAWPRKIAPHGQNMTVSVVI
Assay: release of [3H] arachidonic acid metabolites from CHO-19P2 cells
Type: cell-based
Details: synthetic peptide diluted with 0.05% BSA-HBSS to 10^−12M-10^−6M; radioactivity of [3H] arachidonic acid metabolites released in supernatant
Procedure: The full-length receptor protein-expressed CHO cells and mock CHO cells were seeded in a 24-well plate, 0.5×10^5 cells/well, and cultured for 24 hours. Then, [^3H] arachidonic acid was added at a final concentration of 0.25μCi/well. Sixteen (16) hours after addition of [^3H] arachidonic acid, the cells were rinsed with 0.05% BSA-HBSS and the above-mentioned crude peptide fraction was added, 400 μl/well. The mixture was incubated at 37 C. for 30 minutes and a 300 μl portion of the reaction mixture (400 μl) was added to a scintillator (4 ml) and the amount of [^3H] arachidonic acid metabolite released into the reaction mixture was determined with a scintillation counter. As a result, an arachidonic acid metabolite-releasing activity specific to the full-length receptor protein expressed CHO cells (CHO-19P2) was detected in the 30% CH3CN fraction of the eluate FIG. 16.
The activity of the peptide (19P2-L31) synthesized in Example 21 to specifically release arachidonic acid metabolites from CHO-19P2 cells was assayed in the same manner as Example 11. The synthetic peptide was dissolved in degassed distilled water at a concentration of 10^−3M and diluted with 0.05% BSA-HBSS and the activity to promote release of arachidonic acid metabolites from CHO-19P2 cells at each concentration was assayed using the amount of [^3H] arachidonic acid metabolites as the indicator.
The activity of the synthetic equivalent (19P2- L20) of natural peptide P-2 as synthesized in Example 23 to specifically promote release of arachidonic acid metabolites from CHO-19P2 cells was determined as in Example 11. Thus, the synthetic peptide was dissolved in degassed distilled water at a final concentration of 10^−3M and this solution was serially diluted with 0.05% BAS-HBSS. The activity to specifically promote release of arachidonic acid metabolites from CHO-19P2 cells at each concentration was assayed using the amount of [^3H] arachidonic acid metabolites as the indicator.

| Substance | activity to specifically promote release of arachidonic acid metabolites from CHO-19P2 cells |
| --- | --- |
| Ser-Arg-Ala-His-Gln-His-Ser-Met(O)-Glu-Ile-Arg-Thr-Pro-Asp-Ile-Asn-Pro-Ala-Trp-Tyr-Ala-Gly-Arg-Gly-Ile-Arg-Pro-Val-Gly-Arg-Phe-NH2 (SRAHQHS[Met(O)]EIRTPDINPAWYAGRGIRPVGRF-NH2; N-terminus assumed; SMILES CC[C@H](C)[C@H](NC(=O)CNC(=O)[C@H](CCCNC(=N)N)NC(=O)CNC(=O)[C@H](C)NC(=O)[C@H](Cc1ccc(O)cc1)NC(=O)[C@H](Cc1c[nH]c2ccccc12)NC(=O)[C@H](C)NC(=O)[C@@H]1CCCN1C(=O)[C@H](CC(N)=O)NC(=O)[C@@H](NC(=O)[C@H](CC(=O)O)NC(=O)[C@@H]1CCCN1C(=O)[C@@H](NC(=O)[C@H](CCCNC(=N)N)NC(=O)[C@@H](NC(=O)[C@H](CCC(=O)O)NC(=O)[C@H](CCS(C)=O)NC(=O)[C@H](CO)NC(=O)[C@H](Cc1c[nH]cn1)NC(=O)[C@H](CCC(N)=O)NC(=O)[C@H](Cc1c[nH]cn1)NC(=O)[C@H](C)NC(=O)[C@H](CCCNC(=N)N)NC(=O)[C@@H](N)CO)[C@@H](C)CC)[C@@H](C)O)[C@@H](C)CC)C(=O)N[C@@H](CCCNC(=N)N)C(=O)N1CCC[C@H]1C(=O)N[C@H](C(=O)NCC(=O)N[C@@H](CCCNC(=N)N)C(=O)N[C@@H](Cc1ccccc1)C(N)=O)C(C)C) [19P2-L31(O), methionine-oxidation product of 19P2-L31] | equivalent to the activity of 19P2-L31; also recorded: found in a dose-dependent manner |
| Ser-Arg-Ala-His-Gln-His-Ser-Met-Glu-Ile-Arg-Thr-Pro-Asp-Ile-Asn-Pro-Ala-Trp-Tyr-Ala-Gly-Arg-Gly-Ile-Arg-Pro-Val-Gly-Arg-Phe-NH2 (SRAHQHSMEIRTPDINPAWYAGRGIRPVGRF-NH2) [19P2-L31] | concentration-dependent arachidonic acid metabolite-releasing activity was detected over the range of 10^−12M -10^−6M; also recorded: found in a concentration-dependent manner |
| Thr-Pro-Asp-Ile-Asn-Pro-Ala-Trp-Tyr-Ala-Gly-Arg-Gly-Ile-Arg-Pro-Val-Gly-Arg-Phe-NH2 (TPDINPAWYAGRGIRPVGRF-NH2) [19P2-L20] | concentration-dependent arachidonic acid metabolite-releasing activity was detected over the range of 10^−12 -10^−6M in nearly the same degree as 19P2-L31; also recorded: found in a dose-dependent manner |

From patent US20020143152A1, “Polypeptides, their production and use” (priority 1997, published 2002)
